Assay results published in patent publication US7132278B2, “PAS kinase” (Board of Regents, The University of Texas System, priority 2001, dated 2006).

Substrate: Nc1ncnc2c1ncn2[C@@H]1O[C@H](COP(=O)(O)OP(=O)(O)OP(=O)(O)O)[C@@H](O)[C@H]1O
Assay: PASK kinase activity (phosphorylation of AMARA peptide), ATP kinetics
Assay type: biochemical, human
Conditions: other: HTS kinase assay, AMARA peptide substrate, Tris-HCl pH 7.5, 10 mM MgCl2, room temperature
Method: Biochemical properties of the Pask enzyme. A recombinant baculovirus was engineered to overexpress human PASK enzyme in cultured insect cells. The enzyme was expressed as a fusion with a His6 tag at its amino terminus such that the recombinant polypeptide could be purified by Ni-affinity chromatography. Routine enzyme preparations were harvested from 0.8 liter of cultured Sf-9 cells. Cells were lysed by dounce homogenization in 50 mM Tris-HCl, pH 8.0, 100 mM NaCl, 0.04% β-mercaptoethanol (“lysis buffer”) and spun at 100,000×G for one hour to remove insoluble debris. Soluble material (˜50 ml) was then applied to a 3 ml bed volume of Ni-affinity resin. Following application and 50× column volume wash, bound material was eluted with storage buffer (50 mM HEPES, pH 7.4, 100 mM NaCl, 1 mM DTT, 1 mM EDTA) supplemented with 250 mM imidazole. Eluted material was sequentially subjected to Mono-Q, anion-exchange chromatography, and eluted with increasing NaCl concentration. Fractions were evaluated by SDS-PAGE to identify PASK enriched fractions, pooled and dialyzed against storage buffer supplemented with 10% glycerol. Typical enzyme preparations yield 0.5 mg of intact PASK enzyme judged to be greater than 95% pure by visual inspection of Coomassie-stained SDS-PAGE gels.

B1: human PASK (PAS-kinase), wild type, SEQ ID NO:2 (Homo sapiens) (protein)
chain: MEDGGLTAFEEDQRCLSQSLPLPVSAEGPAAQTTAEPSRSFSSAHRHLSRRNGLSRLCQSRTALSEDRWSSYCLSSLAAQNICTSKLHCPAAPEHTDPSEPRGSVSCCSLLRGLSSGWSSPLLPAPVCNPNKAIFTVDAKTTEILVANDKACGLLGYSSQDLIGQKLTQFFLRSDSDVVEALSEEHMEADGHAAVVFGTVVDIISRSGEKIPVSVWMKRMRQERRLCCVVVLEPVERVSTWVAFQSDGTVTSCDSLFAHLHGYVSGEDVAGQHITDLIPSVQLPPSGQHIPKNLKIQRSVGRARDGTTFPLSLKLKSQPSSEEATTGEAAPVSGYRASVWVFCTISGLITLLPDGTIHGINHSFALTLFGYGKTELLGKNITFLIPGFYSYMDLAYNSSLQLPDLASCLDVGNESGCGERTLDPWQGQDPAEGGQDPRINVVLAGGHVVPRDEIRKLMESQDIFTGTQTELIAGGQLLSCLSPQPAPGVDNVPEGSLPVHGEQALPKDQQITALGREEPVAIESPGQDLLGESRSEPVDVKPFASCEDSEAPVPAEDGGSDAGMCGLCQKAQLERMGVSGPSGSDLWAGAAVAKPQAKGQLAGGSLLMHCPCYGSEWGLWWRSQDLAPSPSGMAGLSFGTPTLDEPWLGVENDREELQTCLIKEQLSQLSLAGALDVPHAELVPTECQAVTAPVSSCDLGGRDLCGGCTGSSSACYALATDLPGGLEAVEAQEVDVNSFSWNLKELFFSDQTDQTSSNCSCATSELRETPSSLAVGSDPDVGSLQEQGSCVLDDRELLLLTGTCVDLGQGRRFRESCVGHDPTEPLEVCLVSSEHYAASDRESPGHVPSTLDAGPEDTCPSAEEPRLNVQVTSTPVIVMRGAAGLQREIQEGAYSGSCHHRDGLRLSIQFEVRRVELQGPTPLFCCWLVKDLLHSQRDSAARTRLFLASLPGSTHSTAAELTGPSLVEVLRARPWFEEPPKAVELEGLAACEGEYSQKYSTMSPLGSGAFGFVWTAVDKEKNKEVVVKFIKKEKVLEDCWIEDPKLGKVTLEIAILSRVEHANIIKVLDIFENQGFFQLVMEKHGSGLDLFAFIDRHPRLDEPLASYIFRQLVSAVGYLRLKDIIHRDIKDENIVIAEDFTIKLIDFGSAAYLERGKLFYTFCGTIEYCAPEVLMGNPYRGPELEMWSLGVTLYTLVFEENPFCELEETVEAAIHPPYLVSKELMSLVSGLLQPVPERRTTLEKLVTDPWVTQPVNLADYTWEEVCRVNKPESGVLSAASLEMGNRSLSDVAQAQELCGGPVPGEAPNGQGCLHPGDPRLLTS
For B1, the Km was 2500 µM.
